Experimental data from the RNAGym collection of RNA variant scans (doi:10.7554/elife.90254).

B1: OR4K15 (parent)
chain: GUUAACGGUCAUAGGCCAUGGAAACUAGGAGCACCAUUUCGCUGCCAGUGAAGAAAUGAACAAAGAAAAUCUGGGCCAGGCAGGCAUCAAAAGAAAUAGUCUUGCGCUCAACCAGAAAGUCUGUAAUCAUUUUAAGGGUA

Variants of: B1
Assay: self-cleavage, relative activity (ratio to wild type); higher = more cleavage; in vitro, sequencing; the parent is a self-cleaving ribozyme

Variant	self-cleavage
A11C U37C	0.79
U9G G83A	1.07
U9C A98U	1.32
A11U A116C	0.23
A11U A116G	1
U12A U38G	1.9
A11U A91G	0.78
A11G U139C	2.37
U9C A92G	0.82
U9C A92C	2.26
U9C G75A	0.08
U9G A62U	0.44
U9C A135G	1.5
U9C A135U	0.57
U9G A91U	1.26
U9C U57A	1.6
C10A A47U	1
U9C C88U	1.34
U9C A24G	1.33
U9C A51G	1.27
U12A A63U	1.88
A11G A140U	1.31
A11G A140G	0.96
U9C A47G	1.08

Variant	self-cleavage
U9C A47U	1.1
U9C A47C	1.02
U9G U57A	0.51
A11U U19A	1.38
A11U U19C	1.85
U12A A30U	1.11
U9C U139C	2.45
U9A U43A	0.83
A11G A96C	0.82
U12A A54U	1.28
C10U U103C	1.16
U9G U26C	0.34
U9C G58A	1.29
A11U A56G	1.1
U9C A54G	1.53
A11G U102C	1.41
U12A A111G	0.08
A11G A68U	1.23
A11G A68G	1.13
A11G A68C	0.39
A11U U132C	0.89
U9C C46A	1.74
U9C C46U	1.03
U12A A110C	0.34

Variant	self-cleavage
U12A A110U	1.63
A11G A33U	0.86
U9G A135U	0.85
A11U U72C	0.35
A11U U72A	0.53
U9C A11U	1.67
A11G U108A	0.03
A11G A30G	1.08
A11G G41U	1.91
A11G G41A	0.82
U9C U100C	2.18
U9A U108A	0
U9C U43C	1.48
A11U A52U	1.54
A11U A52G	1.25
A11G A54G	1.01
U9C A68G	1.51
A11G G31C	1.04
A11G A60U	1.02
A11U G29A	0.94
A11U A54U	2.18
U9G A117G	2.41
U9G A117C	0.41
A11C U122C	1.46

Variant	self-cleavage
U12A	1.19
C10U U131C	0.47
C10U A56G	0.84
U9C A36G	0.96
U9C U131C	1.7
A11G A66G	0.88
A11G A66U	1.45
C10U A47G	0
C10A A118G	1.99
A11G A51G	1.15
U9C A62U	2.18
A11U A60G	1.16
U9C A23C	1.27
U9C A23U	1.07
A11G A118U	0.2
U9C A63U	1.83
A11G A47G	1.27
A11G A36G	0.8
U9C A86G	1.18
A11G A91G	0.73
A11G A91U	1.22
A11G U97C	1.42
C10A A86G	0.31
U12A A66G	0.9

Variant	self-cleavage
U9A U97A	1.03
A11U U133C	1.36
A11U C61A	1.92
A11G A114G	0.46
A11U A86G	1.35
U9G A95G	0.99
U9C A18U	1.36
U9C A18C	0.9
U9C G80A	0.34
A11G A135G	1.41
A11G A135U	0.99
C10U A111G	0.07
A11G U124A	0.66
A11G U124C	0.34
U9C A78U	0.56
U9C A78C	0.38
U9C A129C	0.68
U9C A129U	0.98
U9C A129G	1.37
A11G A52C	0.82
U12A A51U	1.05
U12A A51G	0.95
A11U A110U	1.19
U9C A90U	2.21

Variant	self-cleavage
C10U A55G	0.52
U9C C77U	1.18
C10U U87C	1.08
A11G U130C	0.53
U9C C34U	1.01
C10U A110G	0.19
A11G G137A	0.53
U12A A60C	1.18
U12A A60G	1.36
A11G A94G	0.95
A11G A94U	1.2
A11U C88A	1.99
A11C U72A	0.17
A11C U72C	0.13
C10U A91G	0.68
A11U U127C	1.06
A11G C113G	0.04
A11G U131C	0.79
A11U A78C	0.22
U9C U122C	1.15
U9G A89G	1.46
U9C C112A	0.03
A11U G58A	0.75
U9C U72A	0.43

Variant	self-cleavage
A11G U38A	0.86
A11G U38C	0.65
A11U A117G	1.41
A11U U39C	1.11
A11U U39A	1.34
U9G G119A	1.48
U12A A90G	0.57
U9C U127A	2.67
U9C U127C	1.44
A11G A90U	1.69
A11G A90G	1.04
A11U A30G	1.23
C10A G20A	0.86
U9G U102C	2.28
U9A U131C	0.4
U9G A24G	1.4
U12A A92G	1.37
A11C A69G	1.7
A11U A55G	0.82
A11G	0.77
A11C	1.41
A11U	0.87
U9C A66G	0.9
A11G A59G	0.88

Variant	self-cleavage
A11G A59U	0.98
A11G U103C	0.95
A11U U124C	1.14
A11U A82G	0.63
A11U A140U	1.3
A11G U127A	1.17
A11U A89U	1.59
A11U A89G	1.21
U9C G83A	2.33
C10U A95C	0.6
A11G A78G	0.54
A11G A78U	0.26
C10U U39C	1.02
A11G A22G	1.04
A11G C61G	1
A11C A13G	0.93
A11U U87A	1.75
A11U A118G	0.59
A11U A118U	0.51
U9C A110G	0.15
C10A A90G	1.02
A11U U57C	0.73
A11G A134C	0.5
A11G A134G	0.88

Variant	self-cleavage
U12A A96U	1.67
U12A A96G	1.43
U9C G29U	2.61
A11G G106A	0.06
A11G A92C	0.7
U9C A96G	1.35
U9C A91U	1.49
U9C C40A	1.25
U9C G84A	1.54
U12A U43A	1.63
U12A U43C	0.49
U9A U103C	0.49
A11G C71A	0.71
U9C C45U	1.07
U12A A36C	1.82
U12A A36G	1.05
A11G A86G	0.76
A11G A86U	1.82
U9C A52G	1.63
U9C A52U	1.23
A11C U49C	1.57
A11C A125G	0.5
U12A A59G	1.26
A11U U108G	0.08

Variant	self-cleavage
A11U A18G	1.38
U9C U103C	1.13
U9C U103A	1.9
A11C A118G	2.4
A11C A118U	0.72
A11G U122C	1
A11G A116C	0.1
U12A A56G	1.58
U9C A82U	0.35
U9C A82G	0.58
U12A A13G	1.28
A11G A129C	0.66
A11C A22G	0.94
U9G A78G	0.26
U9A U139A	1.31
A11C A78C	0.16
A11U U100A	0.62
U9C U108G	0.06
U9C U108C	0.02
A11G A110G	0.12
U9G U72A	0.19
A11U A96G	1.31
U9C A60G	1.41
U9C A60U	1.9

Variant	self-cleavage
C10U U127C	0.32
A11U A111U	0.06
A11U A111G	0.06
U9C A22G	1.21
U9C A89U	1.25
U9C A89G	1.45
U9C U19G	2.03
U9C U120G	1.39
A11U A63G	0.86
U9A U122A	1.22
U9A U122C	0.88
U12A A67G	1.56
A11G C101U	0.38
A11G U39C	0.96
U9A U130C	1.33
A11U U122C	0.19
A11G A82U	0.2
A11G U87A	1.05
U9G A54G	1.44
A11G A126U	1.17
U9C U37A	2.35
C10A A68G	0.85
U9C G15A	1.47
U9G U100C	1.91

Variant	self-cleavage
U9C A13U	1.22
A11G C17A	0.61
A11U U49C	1.38
U12A A91U	1.64
C10U A63U	0.69
U9A U37C	1.63
C10A U124C	0.79
A11G C107G	0.05
U9C A55U	1.16
U12A A82U	0.3
U9A U49A	1
A11G C88U	1.54
U9G A96G	1.46
A11G C112U	0.05
A11G C112A	0.02
C10U A117G	2.34
A11G A111G	0.04
U9C A111U	0.09
U9C A111G	0.02
A11U A90G	0.51
C10U U108C	0.06
C10A A96G	1.33
A11G G93A	2.04
U9C	1.61

Variant	self-cleavage
U9G	0.92
U12A A89G	1.57
A11U A51C	1.16
A11U A51U	0.87
C10U U132C	1.26
C10U A64G	1.25
U9C U132C	1.45
U9C U132G	1.94
A11G U70C	0.76
A11G U70A	0.92
U9C A116U	0.55
U9C A116G	0.49
A11G G84U	0.53
U9C G99U	0.63
A11G A27C	0.61
A11G U12A	1.21
U9C U130C	1.05
U12A A52G	1.14
C10A U38A	0.81
U9C U38G	2.11
U9C A114G	0.64
A11U G75C	0.16
A11U A66G	2.37
A11U A92G	1

Variant	self-cleavage
A11G U26C	1.27
A11G U120C	0.35
A11G C121A	1.62
U9C A140G	1.33
C10U U124A	0.36
A11G U72A	0.38
A11G U49C	0.39
U12A U49C	1.59
U12A U49A	0.48
U9C A30G	1.13
U9C C76A	0.07
U9C C76U	0.15
U9C A59G	1.32
A11C U124C	1.12
A11U A114G	0.61
A11U A114U	0.05
U9C G136A	2.13
A11G A125G	0.38
C10U G106C	0.03
U9A U87C	0.85
A11U U97C	0.56
A11U A23G	0.87
